This note sets out measurements from patent US9624471B2, “Methods for maturing cardiomyocytes and uses thereof” (UNIVERSITY OF WASHINGTON THROUGH ITS CENTER FOR …, priority 2013, dated 2017).

For one data set, the system named is HECT293FT cells. Put plainly: Lipofectamine transient transfection of plko-let-7g and plko-let-7g-E plasmids, mature let-7g and target expression after 24 hrs. The note with it: 24 hrs after transfection. Type of data set: cell-based. The protocol: FIGS. 20A-20B Modified let-7g (let-7g-E) is more efficient in generating mature let-7g in HECT293FT cells. Let-7g and a modified version of let-7g (plko-let-7g-E) were induced in hect 293 FT cells by introducing plko-let-7g and plko-let-7g-E plasmids with lipofectamine transient transfection assay. 24 hrs after transfection, cells were tested for mature let-7g expression. […] (FIG. 20B) Targets of let-7 are repressed when we over-express let-7g-E similar to that seen during over-expression of let-7g.

The test system of data set [1] is RUES2-CMs. Put plainly: Immunocytochemistry (α-actinin staining) and morphological analysis of lentivirally transduced cardiomyocytes. Type of data set: cell-based, human. The note with it: Lin28a OE CMs compared to EV control. The protocol:
Undifferentiated human embryonic stem cell (hESCs) lines H7 (NIHhESCC-10-0061) and RUES2 (NIHhESC-09-0013) were expanded using mouse embryonic fibroblast-conditioned medium with 5 ng/ml basic fibroblast growth factor. H7-CMs were derived using previously reported protocols^1-3. RUES2-CMs were used for all functional analyses and these were derived using a cardiac progenitor cell differentiation protocol^4 derived from previously reported monolayer directed differentiation methods^1, 5, 6. In brief, this involves the induction of a monolayer of hESCs with activin A and bone morphogenetic protein-4 (BMP4) under serum- and insulin-free conditions. During the early stages of differentiation, the cells were also exposed to the Wnt agonist CHIR 99021 followed by the Wnt antagonist Xav939. From 7 days of in vitro differentiation, the cells were fed every alternate day with serum-free RPMI-B27 plus insulin media. After 20 days of in vitro differentiation, the cells were trypsinized and replated. Only those cell preparations that had at least 70% cardiac troponin T-positive CMs (as observed by flow cytometry) were used for further experiments. For experiments where the H7-CMs were cultured for around a year, the cells were replated after the 3rd and 11th month from day 0. At the 11th month, FACS analysis for cTnT was conducted and the CMs were split into three parts and were cultured as three independent replicates for another 1.5 months after which they were harvested for RNA extraction. IMR90iPSC-CMs cultured for 1 yr were replated at day 20 and split every 2 months for 12 months before harvesting for RNA extraction. To generate engineered cardiac tissue, the inventors used the procedure reported by Tulloch et al.^2 In brief, day 20 CMs are suspended in the collagen gel at 10,000/μl, and rod-shaped constructs of 25 μl (1 mm radius×8 mm length) were generated by casting in a preformed mold and warming to 37° C. The ends of the mold contain Velcro-like micro-fiber loops, and these become impregnated with gel+cell mixture. These tabs allow the constructs to be maintained under static tension, which facilitates alignment and differentiation of the CMs. The constructs were maintained in the serum-free RPMI-B27 plus glutamine media up to 2 weeks. For let-7 overexpression analysis, the CMs were transduced with the virus carrying the pLKO-let-7 or empty vector control pLKO plasmid at day 12 of the directed differentiation protocol. After overnight transduction the virus was removed, cells were rinsed with PBS and new media added. The samples were analyzed at day 30 from the initiation of differentiation.
All morphological analyses were carried out using at least 50 cells. Cells replated in chamber slides were fixed in 4% paraformaldehyde for 15 minutes followed by PBS wash. The fixed cells were blocked for an hour with 1.5% normal goat serum and incubated O/N with mouse alpha actinin (sigma) primary antibody. The primary antibody was rinsed with PBS and incubated with secondary antibody (Alexa fluor 488 [Goat anti mouse]) for an hour followed by nuclear staining using DAPI. For cell area and perimeter measurements, images were acquired and processed using ZEISS™ AXIO fluorescent microscope and AXIOVISION™ software. For sarcomere length, images were acquired and processed using LEICA™ TCS-SPE confocal microscope and LEICA™ software. These confocal images were used to select 1-2 myofibrils per cell with at least ten continuous, well-recognized alpha-actinin bands and divided the length value by the number of sarcomeres. The images were further analyzed using IMAGE J™ software.
For lenti-let-7 OE constructs, Pri-miR-let-7i and pri-miR-let-7g sequence was amplified from H7 genomic DNA using forward primer for let-7i-TCCGCGTGGTCCCGT; reverse primer for let-7i-ATTGTCCTCCGCGGCGC and forward primer for let-7g-AGAGTTCCTCCAGCGCTCC; reverse primer for let-7g-CCCCACTTGGCAGCTGGC, resulting in 153 bp and 154 bp products, respectively. […]

The test system of data set [2] is RUES2-CMs. In words: mRNA and miRNA qPCR analysis in transduced RUES2-CMs. Type of data set: cell-based, human. The note with it: Lin28a OE hESC-CMs. As to the method:
Undifferentiated human embryonic stem cell (hESCs) lines H7 (NIHhESCC-10-0061) and RUES2 (NIHhESC-09-0013) were expanded using mouse embryonic fibroblast-conditioned medium with 5 ng/ml basic fibroblast growth factor. H7-CMs were derived using previously reported protocols^1-3. RUES2-CMs were used for all functional analyses and these were derived using a cardiac progenitor cell differentiation protocol^4 derived from previously reported monolayer directed differentiation methods^1, 5, 6. In brief, this involves the induction of a monolayer of hESCs with activin A and bone morphogenetic protein-4 (BMP4) under serum- and insulin-free conditions. During the early stages of differentiation, the cells were also exposed to the Wnt agonist CHIR 99021 followed by the Wnt antagonist Xav939. From 7 days of in vitro differentiation, the cells were fed every alternate day with serum-free RPMI-B27 plus insulin media. After 20 days of in vitro differentiation, the cells were trypsinized and replated. Only those cell preparations that had at least 70% cardiac troponin T-positive CMs (as observed by flow cytometry) were used for further experiments. For experiments where the H7-CMs were cultured for around a year, the cells were replated after the 3rd and 11th month from day 0. […] The samples were analyzed at day 30 from the initiation of differentiation. […]
(In general: In qPCR the cycle at which signal appears reflects the starting amount.)

B1: let-7g-E: modified hsa-let-7g with mutated GGAG LIN28 binding motif, SEQ ID NO: 12 (also SEQ ID NO: 16) (nucleic acid, listed as Homo sapiens)
chain: AGGCUGAGGUAGUAGUUUGUACAGUUUGAGGGUCUAUGAUACCACCCGGUACAUCAGAUAACUGUACAGGCCACUGCCUUGCCA
modifications: listed as RNA, chemistry not fully specified
In the case of B1, the “Targets of let-7 expression” value in the data set on HECT293FT cells is “repressed”. Also, the “mature let-7g expression” value in the data set on HECT293FT cells (compared to EV and native let-7g) is “much higher expression”.

B2: Lin28a: Lin28a over-expressed in RUES2-CMs; LIN28 is the negative regulator of let-7 processing (protein, UniProt Q9H9Z2 2-209, looked up)
Protein lin-28 homolog A: GSVSNQQFAGGCAKAAEEAPEEAPEDAARAADEPQLLHGAGICKWFNVRMGFGFLSMTARAGVALDPPVDVFVHQSKLHMEGFRSLKEGEAVEFTFKKSAKGLESIRVTGPGGVFCIGSERRPKGKSMQKRRSKGDRCYNCGGLDHHAKECKLPPQPKKCHFCQSISHMVASCPLKAQQGPSAQGKPTYFREEEEEIHSPTLLPEAQN
With B2, in the data set with RUES2-CMs [1], the cell area entry is recorded as “significant decrease”, the circularity index entry is “increase” and the sarcomere length result is “significant decrease”. Also, the cell perimeter result with RUES2-CMs [1] (N=50 cells per condition) is recorded as “significant decrease”. In the data set with RUES2-CMs [2], the “let-7i and let-7g expression” value is listed as “down-regulated”.
